Experimental data from US20250304643A1 (BAINAN BIOTECH, published 2025).
*1 amine or outer side, *2 acyl side, *3 side chain or, on linkers, in order; H or OH if unused. Where no end group is shown, it is not given here. Side-chain parts run from the residue outwards. [ ]: non-standard residue; d: D form. The star is where a group is joined. C16 diacid = O=C(O)CCCCCCCCCCCCCCC(=O)*; γGlu = O=C(O)[C@H](CCC(=O)[*:2])N[*:1]; Palmitoyl = CCCCCCCCCCCCCCCC(=O)*; Decanoyl = CCCCCCCCCC(=O)*; Aib = CC(C)(N)C(=O)O

T1: human glucagon-like peptide-2 receptor (human, UniProt O95838 1-553)
T1 sequence (looked up): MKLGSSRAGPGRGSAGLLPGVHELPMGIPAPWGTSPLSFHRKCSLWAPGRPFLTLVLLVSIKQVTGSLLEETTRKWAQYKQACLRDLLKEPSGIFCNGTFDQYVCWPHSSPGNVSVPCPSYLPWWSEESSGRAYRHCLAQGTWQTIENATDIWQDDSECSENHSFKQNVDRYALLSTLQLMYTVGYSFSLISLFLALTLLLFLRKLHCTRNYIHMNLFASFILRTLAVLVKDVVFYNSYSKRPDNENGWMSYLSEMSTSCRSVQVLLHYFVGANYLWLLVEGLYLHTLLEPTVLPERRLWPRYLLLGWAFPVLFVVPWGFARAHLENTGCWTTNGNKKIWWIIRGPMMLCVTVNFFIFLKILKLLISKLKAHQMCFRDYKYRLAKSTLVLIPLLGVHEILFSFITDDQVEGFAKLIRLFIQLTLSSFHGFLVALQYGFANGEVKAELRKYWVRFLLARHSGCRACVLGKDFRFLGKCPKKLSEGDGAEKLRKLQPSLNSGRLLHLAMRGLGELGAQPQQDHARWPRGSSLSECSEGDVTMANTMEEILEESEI

T2: human glucose-dependent insulinotropic polypeptide receptor (human, UniProt P48546 22-466)
T2 sequence (looked up): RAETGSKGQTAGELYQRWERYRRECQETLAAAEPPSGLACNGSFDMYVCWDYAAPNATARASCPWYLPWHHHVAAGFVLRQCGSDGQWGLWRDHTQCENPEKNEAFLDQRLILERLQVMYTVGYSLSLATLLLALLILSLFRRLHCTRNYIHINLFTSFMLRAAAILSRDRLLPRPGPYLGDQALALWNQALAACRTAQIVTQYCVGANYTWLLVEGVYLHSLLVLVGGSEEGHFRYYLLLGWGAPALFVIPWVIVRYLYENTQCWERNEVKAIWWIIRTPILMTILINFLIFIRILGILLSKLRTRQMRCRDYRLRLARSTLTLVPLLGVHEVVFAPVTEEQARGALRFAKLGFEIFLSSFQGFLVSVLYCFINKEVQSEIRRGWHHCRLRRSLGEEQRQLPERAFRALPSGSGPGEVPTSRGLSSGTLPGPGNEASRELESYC

B1: Compound no. 10 (peptide)
peptide: H-H[Aib]DGTFK([γGlu-Palmitoyl])SDYSTILDNLAARDFINWLIQTKITK-OH
SMILES: CCCCCCCCCCCCCCCC(=O)N[C@@H](CCC(=O)NCCCC[C@H](NC(=O)[C@H](Cc1ccccc1)NC(=O)[C@@H](NC(=O)CNC(=O)[C@H](CC(=O)O)NC(=O)C(C)(C)NC(=O)[C@@H](N)Cc1c[nH]cn1)[C@@H](C)O)C(=O)N[C@@H](CO)C(=O)N[C@@H](CC(=O)O)C(=O)N[C@@H](Cc1ccc(O)cc1)C(=O)N[C@@H](CO)C(=O)N[C@H](C(=O)N[C@H](C(=O)N[C@@H](CC(C)C)C(=O)N[C@@H](CC(=O)O)C(=O)N[C@@H](CC(N)=O)C(=O)N[C@@H](CC(C)C)C(=O)N[C@@H](C)C(=O)N[C@@H](C)C(=O)N[C@@H](CCCNC(=N)N)C(=O)N[C@@H](CC(=O)O)C(=O)N[C@@H](Cc1ccccc1)C(=O)N[C@H](C(=O)N[C@@H](CC(N)=O)C(=O)N[C@@H](Cc1c[nH]c2ccccc12)C(=O)N[C@@H](CC(C)C)C(=O)N[C@H](C(=O)N[C@@H](CCC(N)=O)C(=O)N[C@H](C(=O)N[C@@H](CCCCN)C(=O)N[C@H](C(=O)N[C@H](C(=O)N[C@@H](CCCCN)C(=O)O)[C@@H](C)O)[C@@H](C)CC)[C@@H](C)O)[C@@H](C)CC)[C@@H](C)CC)[C@@H](C)CC)[C@@H](C)O)C(=O)O
B2: Compound no. 9 (peptide)
peptide: H-H[Aib]DGK([γGlu-Palmitoyl])FISDYSTILDNLAARDFINWLIQTKITK-OH
SMILES: CCCCCCCCCCCCCCCC(=O)N[C@@H](CCC(=O)NCCCC[C@H](NC(=O)CNC(=O)[C@H](CC(=O)O)NC(=O)C(C)(C)NC(=O)[C@@H](N)Cc1c[nH]cn1)C(=O)N[C@@H](Cc1ccccc1)C(=O)N[C@H](C(=O)N[C@@H](CO)C(=O)N[C@@H](CC(=O)O)C(=O)N[C@@H](Cc1ccc(O)cc1)C(=O)N[C@@H](CO)C(=O)N[C@H](C(=O)N[C@H](C(=O)N[C@@H](CC(C)C)C(=O)N[C@@H](CC(=O)O)C(=O)N[C@@H](CC(N)=O)C(=O)N[C@@H](CC(C)C)C(=O)N[C@@H](C)C(=O)N[C@@H](C)C(=O)N[C@@H](CCCNC(=N)N)C(=O)N[C@@H](CC(=O)O)C(=O)N[C@@H](Cc1ccccc1)C(=O)N[C@H](C(=O)N[C@@H](CC(N)=O)C(=O)N[C@@H](Cc1c[nH]c2ccccc12)C(=O)N[C@@H](CC(C)C)C(=O)N[C@H](C(=O)N[C@@H](CCC(N)=O)C(=O)N[C@H](C(=O)N[C@@H](CCCCN)C(=O)N[C@H](C(=O)N[C@H](C(=O)N[C@@H](CCCCN)C(=O)O)[C@@H](C)O)[C@@H](C)CC)[C@@H](C)O)[C@@H](C)CC)[C@@H](C)CC)[C@@H](C)CC)[C@@H](C)O)[C@@H](C)CC)C(=O)O
B3: Compound no. 5 (peptide)
peptide: Palmitoyl-H[Aib]DGTFISDYST[Aib]LDNLAARDFINWLIQTKITK-OH
SMILES: CCCCCCCCCCCCCCCC(=O)N[C@@H](Cc1c[nH]cn1)C(=O)NC(C)(C)C(=O)N[C@@H](CC(=O)O)C(=O)NCC(=O)N[C@H](C(=O)N[C@@H](Cc1ccccc1)C(=O)N[C@H](C(=O)N[C@@H](CO)C(=O)N[C@@H](CC(=O)O)C(=O)N[C@@H](Cc1ccc(O)cc1)C(=O)N[C@@H](CO)C(=O)N[C@H](C(=O)NC(C)(C)C(=O)N[C@@H](CC(C)C)C(=O)N[C@@H](CC(=O)O)C(=O)N[C@@H](CC(N)=O)C(=O)N[C@@H](CC(C)C)C(=O)N[C@@H](C)C(=O)N[C@@H](C)C(=O)N[C@@H](CCCNC(=N)N)C(=O)N[C@@H](CC(=O)O)C(=O)N[C@@H](Cc1ccccc1)C(=O)N[C@H](C(=O)N[C@@H](CC(N)=O)C(=O)N[C@@H](Cc1c[nH]c2ccccc12)C(=O)N[C@@H](CC(C)C)C(=O)N[C@H](C(=O)N[C@@H](CCC(N)=O)C(=O)N[C@H](C(=O)N[C@@H](CCCCN)C(=O)N[C@H](C(=O)N[C@H](C(=O)N[C@@H](CCCCN)C(=O)O)[C@@H](C)O)[C@@H](C)CC)[C@@H](C)O)[C@@H](C)CC)[C@@H](C)CC)[C@@H](C)O)[C@@H](C)CC)[C@@H](C)O
B4: Compound no. 14 (peptide)
peptide: H-H[Aib]DGTFISDYK([γGlu-Palmitoyl])TILDNLAARDFINWLIQTKGKKNDWKHNITQ-NH2
B5: Compound no. 43 (peptide)
peptide: {C16 diacid}-H[Aib]EGTFISDYST[Aib]LDNLAAKDFINWLIQTKITKNDWKHNITQ-OH
B6: Compound no. 11 (peptide)
peptide: HXDGTFISDYKTILDNLAARDFINWLIQTKITK
modifications: Aib at 2; K(γGlu-C16) at 11; C-terminal -OH
B7: Compound no. 6 (peptide)
peptide: Palmitoyl-H[Aib]DGTFISDYSTILD[Aib]LAARDFINWLIQTKITK-OH
SMILES: CCCCCCCCCCCCCCCC(=O)N[C@@H](Cc1c[nH]cn1)C(=O)NC(C)(C)C(=O)N[C@@H](CC(=O)O)C(=O)NCC(=O)N[C@H](C(=O)N[C@@H](Cc1ccccc1)C(=O)N[C@H](C(=O)N[C@@H](CO)C(=O)N[C@@H](CC(=O)O)C(=O)N[C@@H](Cc1ccc(O)cc1)C(=O)N[C@@H](CO)C(=O)N[C@H](C(=O)N[C@H](C(=O)N[C@@H](CC(C)C)C(=O)N[C@@H](CC(=O)O)C(=O)NC(C)(C)C(=O)N[C@@H](CC(C)C)C(=O)N[C@@H](C)C(=O)N[C@@H](C)C(=O)N[C@@H](CCCNC(=N)N)C(=O)N[C@@H](CC(=O)O)C(=O)N[C@@H](Cc1ccccc1)C(=O)N[C@H](C(=O)N[C@@H](CC(N)=O)C(=O)N[C@@H](Cc1c[nH]c2ccccc12)C(=O)N[C@@H](CC(C)C)C(=O)N[C@H](C(=O)N[C@@H](CCC(N)=O)C(=O)N[C@H](C(=O)N[C@@H](CCCCN)C(=O)N[C@H](C(=O)N[C@H](C(=O)N[C@@H](CCCCN)C(=O)O)[C@@H](C)O)[C@@H](C)CC)[C@@H](C)O)[C@@H](C)CC)[C@@H](C)CC)[C@@H](C)CC)[C@@H](C)O)[C@@H](C)CC)[C@@H](C)O
B8: Compound no. 30 (peptide)
peptide: H[Aib]DGTFISDYK([γGlu-Decanoyl])T[Aib]LDNLAARDFINWLIQTKITD-OH
modifications: N-terminus assumed
SMILES: CCCCCCCCCC(=O)N[C@@H](CCC(=O)NCCCC[C@H](NC(=O)[C@H](Cc1ccc(O)cc1)NC(=O)[C@H](CC(=O)O)NC(=O)[C@H](CO)NC(=O)[C@@H](NC(=O)[C@H](Cc1ccccc1)NC(=O)[C@@H](NC(=O)CNC(=O)[C@H](CC(=O)O)NC(=O)C(C)(C)NC(=O)[C@@H](N)Cc1c[nH]cn1)[C@@H](C)O)[C@@H](C)CC)C(=O)N[C@H](C(=O)NC(C)(C)C(=O)N[C@@H](CC(C)C)C(=O)N[C@@H](CC(=O)O)C(=O)N[C@@H](CC(N)=O)C(=O)N[C@@H](CC(C)C)C(=O)N[C@@H](C)C(=O)N[C@@H](C)C(=O)N[C@@H](CCCNC(=N)N)C(=O)N[C@@H](CC(=O)O)C(=O)N[C@@H](Cc1ccccc1)C(=O)N[C@H](C(=O)N[C@@H](CC(N)=O)C(=O)N[C@@H](Cc1c[nH]c2ccccc12)C(=O)N[C@@H](CC(C)C)C(=O)N[C@H](C(=O)N[C@@H](CCC(N)=O)C(=O)N[C@H](C(=O)N[C@@H](CCCCN)C(=O)N[C@H](C(=O)N[C@H](C(=O)N[C@@H](CC(=O)O)C(=O)O)[C@@H](C)O)[C@@H](C)CC)[C@@H](C)O)[C@@H](C)CC)[C@@H](C)CC)[C@@H](C)O)C(=O)O
B9: Compound no. 13 (peptide)
peptide: H-H[Aib]DGTFISDYSTILK([γGlu-Palmitoyl])NLAARDFINWLIQTKITK-OH
SMILES: CCCCCCCCCCCCCCCC(=O)N[C@@H](CCC(=O)NCCCC[C@H](NC(=O)[C@H](CC(C)C)NC(=O)[C@@H](NC(=O)[C@@H](NC(=O)[C@H](CO)NC(=O)[C@H](Cc1ccc(O)cc1)NC(=O)[C@H](CC(=O)O)NC(=O)[C@H](CO)NC(=O)[C@@H](NC(=O)[C@H](Cc1ccccc1)NC(=O)[C@@H](NC(=O)CNC(=O)[C@H](CC(=O)O)NC(=O)C(C)(C)NC(=O)[C@@H](N)Cc1c[nH]cn1)[C@@H](C)O)[C@@H](C)CC)[C@@H](C)O)[C@@H](C)CC)C(=O)N[C@@H](CC(N)=O)C(=O)N[C@@H](CC(C)C)C(=O)N[C@@H](C)C(=O)N[C@@H](C)C(=O)N[C@@H](CCCNC(=N)N)C(=O)N[C@@H](CC(=O)O)C(=O)N[C@@H](Cc1ccccc1)C(=O)N[C@H](C(=O)N[C@@H](CC(N)=O)C(=O)N[C@@H](Cc1c[nH]c2ccccc12)C(=O)N[C@@H](CC(C)C)C(=O)N[C@H](C(=O)N[C@@H](CCC(N)=O)C(=O)N[C@H](C(=O)N[C@@H](CCCCN)C(=O)N[C@H](C(=O)N[C@H](C(=O)N[C@@H](CCCCN)C(=O)O)[C@@H](C)O)[C@@H](C)CC)[C@@H](C)O)[C@@H](C)CC)[C@@H](C)CC)C(=O)O

Target: T1, human glucagon-like peptide-2 receptor
Experiment: cell-based or functional assay

| Efficacy GLP-2R | logEC50 GLP-2R | Binder |
| --- | --- | --- |
| 23% | – | B1 |
| 91% | – | B2 |
| 109% | 9 | B3 |
| 114% | – | B4 |
| 73% | – | B5 |
| 87% | – | B6 |
| 91% | – | B7 |
| 81% | – | B8 |
| 95% | – | B9 |

Target: T2, human glucose-dependent insulinotropic …
Experiment: cell-based or functional assay

| Efficacy GIPR | Binder |
| --- | --- |
| 102% | B1 |
| 110% | B2 |
| 111% | B3 |
| 101% | B4 |
| 115% | B6 |
| 108% | B7 |
| 95% | B9 |
